Changes are numbered by the printed parent chain.

Assay in all cases: flow cytometry on CHO-K1 transfectants;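 further: Anti-hCD27 antibodies tested on transiently transfected CHO-K1 cells bearing hCD27 alanine mutants, 30 min at 4 °C primary incubation, FITC readout excluding debris, dead cells and doublets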
For one assay, the target named is T1, G16A.
T1 construct: also called hCD27 G16A
T1 receptor chain: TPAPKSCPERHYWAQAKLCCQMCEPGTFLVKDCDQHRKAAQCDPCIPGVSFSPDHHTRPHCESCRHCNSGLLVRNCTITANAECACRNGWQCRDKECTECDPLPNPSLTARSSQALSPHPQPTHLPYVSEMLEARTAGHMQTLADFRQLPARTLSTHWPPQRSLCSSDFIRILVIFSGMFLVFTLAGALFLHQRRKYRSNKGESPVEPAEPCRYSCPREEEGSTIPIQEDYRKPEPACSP

Another assay deals with T2, Q15A.
T2 construct: also called hCD27 Q15A
T2 receptor chain: T1 receptor chain with Q15A, A16G

Another assay deals with T3, R10A.
T3 construct: also called hCD27 R10A
T3 receptor chain: T1 receptor chain with R10A, A16G

The target of another assay is T4, V49A.
T4 construct: also called hCD27 V49A
T4 receptor chain: T1 receptor chain with A16G, V49A

Another assay concerns the target T5, R37A.
T5 construct: also called hCD27 R37A
T5 receptor chain: T1 receptor chain with A16G, R37A

The target of the next assay is T6, P44A.
T6 construct: also called hCD27 P44A
T6 receptor chain: T1 receptor chain with A16G, P44A

For the next assay, the target named is T7, P8A.
T7 construct: also called hCD27 P8A
T7 receptor chain: T1 receptor chain with P8A, A16G

The target of another assay is T8, R87A.
T8 construct: also called hCD27 R87A
T8 receptor chain: T1 receptor chain with A16G, R87A

The next assay deals with T9, E9A.
T9 construct: also called hCD27 E9A
T9 receptor chain: T1 receptor chain with E9A, A16G

The target in the next assay is T10, N88A.
T10 construct: also called hCD27 N88A
T10 receptor chain: T1 receptor chain with A16G, N88A

Method for E9A: (§1) The hCD27 variants that were tested are listed. Amino acids correspond to the UniProt P26842-1 sequence. Amino acids 1-20 constitute the signal peptide. Binding is expressed as the geometric mean of the FITC signal, relative to antibody binding to hCD27, which was set at 100%.
(§2) The ability of several anti-hCD27 antibodies to bind to a series of hCD27 alanine mutants was determined using CHO-K1 cells, transiently transfected pCI-neo empty vector, pCI-neo.hCD27 and several pCI-neo.CD27Ala mutant constructs.
(§3) Detached cells were transferred to 96 wells round-bottomed well plates at approximately 1.2×10⁵ cells/well. After spinning down the cells, discarding the supernatants and re-suspending the cells in the residual volume, the primary antibodies were added and incubated for 30 minutes at 4° C. Cells were washed three times with DPBS/BSA 1%, followed by centrifugation, discarding of the supernatants and re-suspension in the residual volume. […] After washing once, antibody binding was detected using the HTS plate reader (FACS Canto II) and FlowJo software for data analysis. Debris, dead cells and doublets were excluded from the analysis. Binding was expressed as the geometric mean of the FITC signal, relative to antibody binding to hCD27, which was set at 100%.
Method for G16A: as §1, §2, §3
Method for N88A: as §1, §2, §3
Method for P44A: as §1, §2, §3
Method for P8A: as §1, §2, §3
Method for Q15A: as §1, §2, §3
Method for R10A: as §1, §2, §3
Method for R37A: as §1, §2, §3
Method for R87A: as §1, §2, §3
Method for V49A: as §1, §2, §3

B1: hCD27.15-6B (antibody, human IgG4 S228P, kappa, V domains shown)
VH: QVQLVQSGAEVKKPGASVKVSCKASGFIIKATYMHWVRQAPGQRLEWMGRIDPANGETKYDPKFQVRVTITADTSASTAYMELSSLRSEDTAVYYCARYAWYFDVWGQGTLVTVSS
VL: DIQMTQSPSSLSASVGDRVTITCRASENIYSFLAWYQQKPGKAPKLLIYHAKTLAEGVTSRFSGSGSGTDFTLTISSLQPEDSATYYCQHYYGSPLTFGQGTRLEIKR
notes: also called hCD27.15 (humanized 6B); humanized hCD27.15 (human IgG4, Clone 6B)
As to B1, the “binding, WT hCD27 = 100 (GM FITC)” value with G16A turned out to be 141%; in the assay with Q15A, 98.6%; with R10A, 58.9%; with V49A it was 69%; with R37A, 106%; with P44A it was 68.7%. Besides, the “binding, WT hCD27 = 100 (GM FITC)” value in the assay with P8A was found to be 63%; with R87A, 114%; with E9A, 58.5%; with N88A, 132%.

The values are drawn from US20180086841A1 (Merck Sharp & Dohme, published 2018).
